Here are results for one molecule from article PMC13408441, “Molecular regulation and physiological role of GOLPH3-mediated Golgi retention” (Nature Communications, 2026).

Series [1] in a line: CD thermal denaturation of GOLPH3 proteins. It counts as physicochemical, human. The note with it: CD at 207 nm, 20 to 95 °C at 1 °C/min, 10 μM protein, 100 mM NaCl, 50 mM Tris pH 7.4, 1 mM TCEP. The protocol:
(§1) Supplemental Material for Theodoropoulou, Nasrallah, et al 2026
Isothermal titration calorimetry
Isothermal titration calorimetry (ITC) experiments were performed on a MicroCal PEAQ-ITC (Malvern Panalytical), with GOLPH3 variants being in a buffer containing 250 mM NaCl, 50 mM Tris pH 8.0 and 1 mM TCEP. LCS peptides were synthesised and delivered as lyophilised powder (Genscript). The peptides were dissolved in the protein buffer and their concentrations were calculated based upon their absorbance at 280 nm and their corresponding molar extinction coefficient. Experiments consisted of titrations of a single 0.4 µL injection followed […]
GOLPH3 proteins at a 100 μM concentration. Experiments were performed at 25 °C in triplicate (n = 3), with injection duration of 4 s, injection spacing of 150 s, stir speed of 750 rpm, and reference power of 7 μcal/s. Data were processed and plotted using MicroCal PEAQ‐ITC Analysis Software and fitted to a one‐site binding model.
(§2) Circular Dichroism Spectroscopy
(§3) Circular Dichroism Spectra of GOLPH3 proteins (at 10 μM in 100 mM NaCl, 50 mM Tris pH 7.4 and 1 mM TCEP) were collected with a Chirascan V100 (AppliedPhotophysics), using a 1 mm path length cuvette, at 20 °C, in the 200-260 nm range. Thermal denaturation experiments […]
(§4) every 1 °C, with a temperature ramp speed of 1 °C/min and an equilibration time of […]
(§5) Table S2: Fits of CD spectra to fractions of secondary structure for Golph3 WT and various mutants of it, carried out with the BestSel server

Series [2] has as its target T1, GOLPH3-4G (Homo sapiens, UniProt Q9H4A6, F194G/F197G/L195G/L196G).
T1 construct: 10xHistidine tag (N, cleaved yes); Twin-Strep-tag (N, cleaved yes); made in house; host or cells: E. coli BL21(DE3)
Description: NMR 1H-15N HSQC titration of LCS tail peptide into 15N-labeled GOLPH3-4G. Format: binding. The note with it: final LCS titration point, MES pH 6.5, 250 mM NaCl, 308K. The protocol: (§6) Supplemental Material for Theodoropoulou, Nasrallah, et al 2026 buffer. Pooled fractions were concentrated to the required concentration using a MWCO concentrator (Millipore) with a cutoff of 10 kDa.
(§7) Size exclusion chromatography coupled to multi-angle light scattering
(§8) The molecular weights of the tested constructs were determined by size exclusion chromatography coupled to multi-angle light scattering (SEC-MALS). The mass measurements were performed on a UltiMate3000 HPLC system equipped with a 3 angles miniDAWN TREOS static light scattering detector (Wyatt Technology). The sample volumes of 5−10 μl at a concentration of 12 mg/mL, were applied to a Superdex 200 5/150 GL column (Cytiva) previously equilibrated with 250 mM NaCl, 50 mM Tris pH 8.0, 1 mM TCEP at a flow rate of 0.08 mL/min. The data were analyzed using the ASTRA 6.1 software package (Wyatt technology), using the absorbance at 280 nm and the theoretical extinction coefficient for concentration measurements.
(§9) Nuclear Magnetic Resonance (NMR) Spectroscopy
All proteins used for NMR experiments were designed on the GOLPH3-4G background due […]
Recombinant proteins were prepared with the isotope enrichment scheme appropriate for each experiment (i.e. 15N-only or 15N, 13C) in 20 mM MES […]
buffer pH 6.5 with 250 mM NaCl and 10% 2H2O.
Protein concentrations were around 300 µM for all NMR experiments, […]
spectrometer equipped with a CPTC 1H, 13C, 15N 5 mm cryoprobe and an Avance Neo console.
CA, and C) and CB resonances were assigned using a standard procedure based on conventional 3D HNCA, HN(CO)CA, HNCO, HN(CA)CO, CBCA(CO)NH and HNCACB spectra. All spectra were acquired and processed using Bruker’s Topspin 4.0 software.
Backbone assignments were obtained through manual spectral analysis assisted by the […]
spectra acquired on single-point mutants. […]
residues are provided in Table S1 and deposited in the BMRB under ID 53516.

The nature of series [3]: CD secondary structure of GOLPH3 proteins (BestSel fits). It counts as physicochemical, human. The note with it: 10 μM, 100 mM NaCl, 50 mM Tris pH 7.4, 1 mM TCEP, 20 °C. The protocol:
as §1
Isothermal titration calorimetry […]
as §2, §3, §4, §5

Series [4] is described as follows: SEC-MALS of GOLPH3 constructs. It counts as physicochemical, human. The note with it: 12 mg/mL, 250 mM NaCl, 50 mM Tris pH 8.0, 1 mM TCEP. The protocol: as §6, §7, §8, §9
All proteins used for NMR experiments were designed on the GOLPH3-4G background due to its higher stability and solubility. Recombinant proteins were prepared with the isotope enrichment scheme appropriate for each experiment (i.e. 15N-only or 15N, 13C) in 20 mM MES buffer pH 6.5 with 250 mM NaCl and 10% 2H2O. Lower salt, even by 10%, yielded much degraded spectra. […]
(In general: SEC sorts molecules by how far they enter the pores of the column.)

B1: GOLPH3-4G: mutant F194G/L195G/L196G/F197G with improved solubility (protein)
chain: MTSLTQRSSGLVQRRTEASRNAADKERAAGGGAGSSEDDAQSRRDEQDDDDKGDSKETRLTLMEEVLLLGLKDREGYTSFWNDCISSGLRGCMLIELALRGRLQLEACGMRRKSLLTRKVICKSDAPTGDVLLDEALKHVKETQPPETVQNWIELLSGETWNPLKLHYQLRNVRERLAKNLVEKGVLTTEKQNGGGGDMTTHPLTNNNIKQRLIKKVQEAVLDKWVNDPHRMDRRLLALIYLAHASDVLENAFAPLLDEQYDLATKRVRQLLDLDPEVECLKANTNEVLWAVVAAFTK
On to B1, for which the “Tm / melting temperature” value in series [1] stood at 55 °C. Besides, in series [2], the “chemical shift perturbation, A245” value is listed as 0.023 p.p.m; the “chemical shift perturbation, A294” value is on record as 0.02332 p.p.m; the “chemical shift perturbation, D247” value came to 0.05478 p.p.m; the “chemical shift perturbation, D258” value is recorded as 0.09666 p.p.m. Moreover, in series [2], the “chemical shift perturbation, E259” value came out at 0.06997 p.p.m; the “chemical shift perturbation, H202” value is listed as 0 p.p.m; the “chemical shift perturbation, K266” value is on record as 0.1082 p.p.m; the “chemical shift perturbation, K298” value came out at 0.09652 p.p.m. Also, in series [2], the “chemical shift perturbation, Q260” value is recorded as 0.1208 p.p.m; the “chemical shift perturbation, S246” value came out at 0.08006 p.p.m; the “chemical shift perturbation, T200” value is listed as 0 p.p.m; the “chemical shift perturbation, T201” value turned out to be 0 p.p.m. In addition, in series [2], the “chemical shift perturbation, T265” value amounted to 0.1157 p.p.m; the “chemical shift perturbation, T297” value is on record as 0.1247 p.p.m; the “chemical shift perturbation, Y261” value stood at 0.1039 p.p.m. In series [3], the “% alpha” value stood at 36%, the “% beta parallel” value is 0%, the “% beta-antiparallel” value worked out at 13% and the “% others” value is 36%. Further, the “% turn” value in series [3] came out at 15%. Besides, the oligomeric state entry in series [4] is “monomeric”.
